# Assay results reported in US9765127.
# Target: porcine pancreatic secretory PLA2 enzyme (sPLA2 1B) (porcine) (UniProt P00592)
# Assay: cell-based or functional assay
# UniProt P00592, sequence (P00592 23-146): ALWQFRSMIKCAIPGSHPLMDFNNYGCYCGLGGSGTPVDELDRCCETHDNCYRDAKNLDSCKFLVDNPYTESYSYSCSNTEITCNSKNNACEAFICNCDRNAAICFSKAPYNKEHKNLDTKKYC
substance,measurement,value
recombinant human SCGB3A2 with N-terminus ATA (from UniProt Q96PL1 19-93),"% inhibition of sPLA2-1B activity (fluorescent HPLC assay, cleavage of UNIBIPY substrate)",83%
